In patent US6319897A, “Peptides which inhibit complement activation” (priority 1999, dated 2001):

Assays:
[1] = system: alternative pathway-mediated hemolytic activity (thioester of C3); conditions: read-out: 50% inhibitory concentration, alternative pathway-mediated hemolytic activity; cited from earlier work
[2] = system: classical pathway-mediated hemolytic activity (thioester of C3); conditions: read-out: 50% inhibitory concentration, classical pathway-mediated hemolytic activity; cited from earlier work
[3] = target: T1, C3c (Homo sapiens, UniProt P01024); experiment: Phage clone binding ELISA, immobilized C3c; conditions: 2 μg coated, 1 hour 22° C.
T1 construct: C3c, 135,300 Mr fragment of C3 generated using elastase; from tissue; host or cells: normal human plasma; C3 treated with elastase, Mono Q purified
T1 sequence (P01024 23-667 limits assumed): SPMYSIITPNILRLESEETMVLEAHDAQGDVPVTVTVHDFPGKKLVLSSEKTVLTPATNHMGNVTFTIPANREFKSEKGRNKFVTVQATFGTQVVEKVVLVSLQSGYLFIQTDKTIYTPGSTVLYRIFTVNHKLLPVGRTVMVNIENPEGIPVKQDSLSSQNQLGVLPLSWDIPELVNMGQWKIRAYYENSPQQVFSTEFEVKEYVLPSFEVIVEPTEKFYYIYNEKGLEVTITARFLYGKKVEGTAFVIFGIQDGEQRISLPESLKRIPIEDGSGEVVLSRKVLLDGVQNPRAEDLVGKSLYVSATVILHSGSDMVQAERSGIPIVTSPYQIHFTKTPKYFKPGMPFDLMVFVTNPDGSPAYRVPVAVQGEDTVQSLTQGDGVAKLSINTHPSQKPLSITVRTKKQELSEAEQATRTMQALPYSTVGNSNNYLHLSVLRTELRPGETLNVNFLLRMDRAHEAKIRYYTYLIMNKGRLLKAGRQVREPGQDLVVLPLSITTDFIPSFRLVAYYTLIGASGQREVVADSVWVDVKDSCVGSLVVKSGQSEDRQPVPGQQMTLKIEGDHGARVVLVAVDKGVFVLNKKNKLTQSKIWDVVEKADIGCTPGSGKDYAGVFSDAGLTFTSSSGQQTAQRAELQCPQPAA
T1 sequence (P01024 749-954 limits assumed): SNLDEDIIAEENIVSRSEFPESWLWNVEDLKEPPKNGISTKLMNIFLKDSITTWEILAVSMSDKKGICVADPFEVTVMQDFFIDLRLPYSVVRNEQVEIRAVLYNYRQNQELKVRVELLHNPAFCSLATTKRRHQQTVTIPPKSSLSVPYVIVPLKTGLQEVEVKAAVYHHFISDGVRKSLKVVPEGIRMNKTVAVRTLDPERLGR
T1 sequence (P01024 1321-1663 limits assumed): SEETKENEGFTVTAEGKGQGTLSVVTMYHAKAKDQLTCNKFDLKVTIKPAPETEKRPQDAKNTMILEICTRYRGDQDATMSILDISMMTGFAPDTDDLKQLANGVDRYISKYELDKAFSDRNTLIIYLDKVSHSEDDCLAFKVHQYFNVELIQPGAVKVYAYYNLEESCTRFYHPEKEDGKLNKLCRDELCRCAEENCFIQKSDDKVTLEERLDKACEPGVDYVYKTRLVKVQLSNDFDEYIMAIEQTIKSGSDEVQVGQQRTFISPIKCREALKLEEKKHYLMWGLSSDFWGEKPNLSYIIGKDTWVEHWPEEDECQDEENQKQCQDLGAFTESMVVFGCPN
Experimental: (§1) Microtiter wells were coated with 2 μg of C3, C3b, C3c or C3d, saturated with blocking buffer, washed with PBS (pH 7.4) containing 0.05% Tween 20, and incubated 1 hour at 22° C. with a positive (clone 9) or negative (clone 1) clone. Binding was inhibited by adding 250 μg/ml of aggregated C3 in PBS, pH 7.4. Bound M13 phage particles were detected by peroxidase-coupled anti-M13 antibody and ABTS peroxidase substrate. Diagonally lined bars represent peroxidase-coupled anti-M13 antibody bound non-specifically to the plate; cross-hatched bars represent clone 9 bound to C3 or C3 fragments; horizontally lined bars represent clone 9 bound to C3 or C3 fragments in the presence of 250 μg/ml of aggregated C3; and vertically lined bars represent clone 1 bound to C3 or C3 fragments.
(§2) The C3-binding phage was isolated by screening the phage library described in Example 3. Microtiter well plates (Nunc Inc., Naperville, Ill.) were coated overnight with 20 μg of C3b in PBS at 4° C. and blocked with PBS containing 1% BSA for 30 minutes at 22° C. […] The amplified phage mixture obtained after the third round of amplification was plated, and positive phage were identified by confirming their binding to C3b in an ELISA, in which bound phage were detected by peroxidase-labeled anti-M13 antibody (Pharmacia). […]

[4] = target: T2, C3b (Homo sapiens, UniProt P01024); experiment: Phage clone binding ELISA, immobilized C3b; conditions: 2 μg coated, 1 hour 22° C.
T2 construct: from tissue; host or cells: normal human plasma; C3 cleaved with trypsin, Mono Q purified
T2 sequence (P01024 23-667 limits assumed): as the sequence (P01024 23-667 limits assumed) above
T2 sequence (P01024 749-1663 limits assumed): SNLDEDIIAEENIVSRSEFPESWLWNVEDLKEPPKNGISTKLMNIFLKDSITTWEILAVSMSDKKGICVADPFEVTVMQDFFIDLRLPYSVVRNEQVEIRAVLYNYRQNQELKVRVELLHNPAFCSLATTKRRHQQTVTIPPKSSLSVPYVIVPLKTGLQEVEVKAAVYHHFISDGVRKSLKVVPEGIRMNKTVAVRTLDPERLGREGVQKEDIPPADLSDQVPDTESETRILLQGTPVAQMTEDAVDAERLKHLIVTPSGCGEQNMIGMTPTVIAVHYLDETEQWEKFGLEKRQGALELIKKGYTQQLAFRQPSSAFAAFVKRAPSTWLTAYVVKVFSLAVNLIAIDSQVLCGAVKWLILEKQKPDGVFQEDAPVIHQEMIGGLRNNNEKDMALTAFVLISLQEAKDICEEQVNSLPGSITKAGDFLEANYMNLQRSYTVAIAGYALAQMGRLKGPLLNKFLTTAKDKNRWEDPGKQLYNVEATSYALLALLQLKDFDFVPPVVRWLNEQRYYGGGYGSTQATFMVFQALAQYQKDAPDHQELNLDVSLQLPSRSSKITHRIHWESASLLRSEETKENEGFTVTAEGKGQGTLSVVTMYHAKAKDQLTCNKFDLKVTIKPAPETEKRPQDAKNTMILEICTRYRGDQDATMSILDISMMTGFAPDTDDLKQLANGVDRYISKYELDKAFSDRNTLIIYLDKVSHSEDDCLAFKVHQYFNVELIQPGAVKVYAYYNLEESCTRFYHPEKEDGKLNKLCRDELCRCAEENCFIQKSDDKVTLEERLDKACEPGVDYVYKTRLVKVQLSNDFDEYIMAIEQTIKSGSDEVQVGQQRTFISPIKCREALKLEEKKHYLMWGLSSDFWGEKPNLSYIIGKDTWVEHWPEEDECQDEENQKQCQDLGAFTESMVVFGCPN
Experimental: as §1, §2

[5] = target: T3, C3d (Homo sapiens, UniProt P01024); experiment: Phage clone binding ELISA, immobilized C3d; conditions: 2 μg coated, 1 hour 22° C.
T3 construct: C3d, 35,000 Mr fragment of C3 generated using elastase; from tissue; host or cells: normal human plasma; C3 treated with elastase, Mono Q purified
T3 sequence (P01024 1002-1303 limits assumed): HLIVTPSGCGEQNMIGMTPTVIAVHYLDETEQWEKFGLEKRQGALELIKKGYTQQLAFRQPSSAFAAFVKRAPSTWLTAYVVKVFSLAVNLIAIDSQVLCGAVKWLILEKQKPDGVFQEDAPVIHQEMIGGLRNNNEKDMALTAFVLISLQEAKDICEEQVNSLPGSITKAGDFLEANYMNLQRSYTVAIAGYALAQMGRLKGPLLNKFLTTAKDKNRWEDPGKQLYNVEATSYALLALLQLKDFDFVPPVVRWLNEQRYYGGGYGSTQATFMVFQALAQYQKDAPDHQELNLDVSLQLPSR
Experimental: as §1, §2

[6] = target: T4, C3 (Homo sapiens, UniProt P01024); experiment: Phage clone binding ELISA, immobilized C3; conditions: 2 μg coated, 1 hour 22° C.
T4 construct: purified from normal human plasma in accordance with well known procedures; from tissue; host or cells: normal human plasma (C3, factor B)
T4 sequence (P01024 23-667 limits assumed): as the sequence (P01024 23-667 limits assumed) above
T4 sequence (P01024 672-1663 limits assumed): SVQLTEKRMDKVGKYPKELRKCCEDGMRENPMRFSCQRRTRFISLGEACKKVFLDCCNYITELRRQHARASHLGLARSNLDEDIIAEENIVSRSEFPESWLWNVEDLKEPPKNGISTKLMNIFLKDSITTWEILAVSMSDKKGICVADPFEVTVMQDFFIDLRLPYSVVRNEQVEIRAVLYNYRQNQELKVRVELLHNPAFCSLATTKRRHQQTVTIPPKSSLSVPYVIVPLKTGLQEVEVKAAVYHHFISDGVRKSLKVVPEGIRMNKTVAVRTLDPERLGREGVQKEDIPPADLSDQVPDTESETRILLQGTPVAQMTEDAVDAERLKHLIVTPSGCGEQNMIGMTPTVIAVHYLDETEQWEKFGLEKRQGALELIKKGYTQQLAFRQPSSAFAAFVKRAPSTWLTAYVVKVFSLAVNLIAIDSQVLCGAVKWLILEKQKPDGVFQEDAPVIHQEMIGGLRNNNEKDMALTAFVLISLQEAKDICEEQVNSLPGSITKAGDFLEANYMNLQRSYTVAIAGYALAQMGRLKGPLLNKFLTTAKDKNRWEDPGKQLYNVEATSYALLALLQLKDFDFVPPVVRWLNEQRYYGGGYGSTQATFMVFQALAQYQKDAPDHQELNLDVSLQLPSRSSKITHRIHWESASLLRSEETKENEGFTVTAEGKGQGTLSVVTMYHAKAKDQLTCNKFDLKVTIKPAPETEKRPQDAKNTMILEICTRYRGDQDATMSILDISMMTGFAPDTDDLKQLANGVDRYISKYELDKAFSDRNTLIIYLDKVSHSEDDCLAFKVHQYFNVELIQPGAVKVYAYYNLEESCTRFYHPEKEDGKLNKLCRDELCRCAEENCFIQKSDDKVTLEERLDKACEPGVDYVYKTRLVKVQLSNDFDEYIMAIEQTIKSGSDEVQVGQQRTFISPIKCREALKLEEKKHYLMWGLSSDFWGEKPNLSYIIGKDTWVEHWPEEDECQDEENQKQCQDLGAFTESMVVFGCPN
Experimental: as §1, §2

[7] = system: complement; conditions: in vivo; cited from earlier work

Compound: O=C(NO)c1ccccc1O [salicyl hydroxamate]
- IC50 [1]: 33 µM
- IC50 [2]: 280 µM

Compound: SSICVVQDWGHHRCTAGHMANLTSHASAIR [Clone 9]
- binding of phage clone to C3c [3]: bound
- binding of phage clone to C3b [4]: bound
- binding of phage clone to C3d [5]: not to C3d
- binding of phage clone to C3 [6]: bound

Compound: sCR1: soluble form of CR1 (complement receptor 1)
- complement suppression in complement-dependent disease models [7]: suppresses complement
